Measured values reported in article PMC4899871.

Molecular target: GST-HA-ATG16L1-231–607 produced in yeast (extended WDD construct that includes residue 300), Q676U5
Assay: peptide microarray
Conditions: chain shown with the change, probe purified from yeast, mean ± s.d., n=9 replicas, read off a plot

Chain of GST-HA-ATG16L1-231–607 produced in yeast (extended WDD construct that includes residue 300), Q676U5 (Q676U5 231-607): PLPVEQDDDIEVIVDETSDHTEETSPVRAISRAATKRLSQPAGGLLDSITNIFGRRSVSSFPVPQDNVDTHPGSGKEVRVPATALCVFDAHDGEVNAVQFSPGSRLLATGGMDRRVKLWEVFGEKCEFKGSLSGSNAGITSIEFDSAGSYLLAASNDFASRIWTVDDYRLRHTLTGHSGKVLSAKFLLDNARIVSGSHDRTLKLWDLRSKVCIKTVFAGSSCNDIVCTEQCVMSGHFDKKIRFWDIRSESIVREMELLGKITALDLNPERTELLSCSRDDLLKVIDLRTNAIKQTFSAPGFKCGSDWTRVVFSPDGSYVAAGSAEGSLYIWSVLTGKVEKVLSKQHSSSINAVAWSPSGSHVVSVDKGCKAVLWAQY

B1: TMEM59 263–281 peptide, wild type (19-amino acid peptide that includes the ATG16L1-binding motif), Q9BXS4 Y268A; E272A; Y277A; L280A (peptide)
chain: TAVEQAVPSAKLSIAGDAE
For B1, the percent of parent (parent: est. 100, scale: % of WT peptide) was 12 and the response (parent: est. 1100) was 200 a.u. (OD635).
